# Assay results as given in patent US20210179684A1.
# Legend:
# [1] = biological target: TrkC receptor on cells (NIH-TrkC); assay: flow cytometry on NIH-TrkC cells; 20 nM Biotin-NT3, fluorescent avidin; no competitor
# [2] = biological target: p75 neurotrophin receptor on cells (NIH-p75); assay: flow cytometry on NIH-p75 cells; 20 nM Biotin-NT3, fluorescent avidin; no competitor
# [3] = biological target: TrkA receptor on cells (NIH-TrkA); assay: flow cytometry on NIH-TrkA cells; 20 nM Biotin-NT3, fluorescent avidin; no competitor
# [4] = biological target: p75 neurotrophin receptor on cells (NIH-p75); assay: competition flow cytometry on NIH-p75 cells; 20 nM Biotin-NT3 tracer, cold competitor at 200 nM; value is the tracer binding left
# [5] = biological target: TrkC receptor on cells (NIH-TrkC); assay: competition flow cytometry on NIH-TrkC cells; 20 nM Biotin-NT3 tracer, cold competitor at 200 nM; value is the tracer binding left
# [6] = biological target: p75 neurotrophin receptor on cells (NIH-p75); assay: competition flow cytometry on NIH-p75 cells; 20 nM Biotin-NT3 tracer, cold competitor at 200 nM; value is the tracer signal left
# [7] = biological target: TrkA receptor on cells (NIH-TrkA); assay: competition flow cytometry on NIH-TrkA cells; 20 nM Biotin-NT3 tracer, cold competitor in 3-fold excess; value is the tracer signal left
# [8] = biological target: TrkC receptor on cells (NIH-TrkC); assay: cell-based or functional assay
# [9] = biological target: TrkA receptor on cells (NIH-TrkA); assay: competition flow cytometry on NIH-TrkA cells; 20 nM Biotin-NT3 tracer, cold competitor in 3-fold excess; value is the tracer binding left
# [10] = biological target: TrkC receptor on cells (NIH-TrkC); assay: competition flow cytometry on NIH-TrkC cells; 20 nM Biotin-NT3 tracer, cold competitor at 200 nM; value is the tracer signal left
MCF (mean channel fluorescence) [1],MCF (mean channel fluorescence) [2],MCF (mean channel fluorescence) [3],% of maximal binding to p75 [4] [%],% of maximal binding to TrkC [5] [%],MCF (mean channel fluorescence) [6],MCF (mean channel fluorescence) [7],% of maximal binding to TrkA [9] [%],MCF (mean channel fluorescence) [10],Substance,% survival at 0.1 nM in culture [8] [%]
93,76,38,,,,,,,"Biotin-NT-3 (wild type NT-3 covalently linked to biotin, tracer) (from UniProt P18280 140-258) (ligand)",
,,,89,13,69,16,,,"NT-3 mutant (SEQ ID NO: 23), D15A/R114A/K115A (from UniProt P18280 140-258) (ligand)",
,,,,18,,20,36,25,"Wild type NT-3 (neurotrophin 3, mature form), unlabeled (from UniProt P18280 140-258) (ligand)",34
